In US20230279018A1, “AP[…] INHIBITION” (priority 2020, published 2023):

Columns and labels:
[1] = target: T1, Plasmodium falciparum cytoplasmic phenylalanyl-tRNA synthetase (PfcFRS) beta subunit (Plasmodium falciparum); assay: SDS-PAGE of the final purified protein (co-purification of the α and β subunits)
T1 construct: Tags are not described; also called PfcFRS β subunit; Pf-β
T1 chain: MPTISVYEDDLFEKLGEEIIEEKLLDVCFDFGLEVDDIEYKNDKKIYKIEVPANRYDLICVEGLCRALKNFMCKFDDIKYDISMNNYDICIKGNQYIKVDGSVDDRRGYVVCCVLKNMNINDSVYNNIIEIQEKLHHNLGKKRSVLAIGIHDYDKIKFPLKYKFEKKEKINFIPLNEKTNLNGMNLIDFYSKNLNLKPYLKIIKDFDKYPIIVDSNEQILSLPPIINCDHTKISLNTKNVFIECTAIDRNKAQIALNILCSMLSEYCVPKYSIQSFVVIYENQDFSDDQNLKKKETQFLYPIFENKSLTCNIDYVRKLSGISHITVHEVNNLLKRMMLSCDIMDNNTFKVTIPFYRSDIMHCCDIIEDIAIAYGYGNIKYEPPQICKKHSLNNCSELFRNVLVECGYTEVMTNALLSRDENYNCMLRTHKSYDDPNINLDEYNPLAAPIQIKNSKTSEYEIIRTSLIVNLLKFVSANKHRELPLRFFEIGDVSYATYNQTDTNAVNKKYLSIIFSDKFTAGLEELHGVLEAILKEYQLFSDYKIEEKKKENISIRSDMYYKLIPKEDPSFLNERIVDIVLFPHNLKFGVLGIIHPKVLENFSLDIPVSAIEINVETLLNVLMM

[2] = target: T2, Plasmodium vivax cytoplasmic phenylalanyl-tRNA synthetase (PvcFRS) beta subunit (PVX_090880) (Plasmodium vivax, UniProt A5K464 1-617); assay: analytical gel filtration (Superdex 200) of co-expressed, co-purified alpha and beta subunits
T2 construct: Said to be full-length; Tag or fusion residues from the vector are not described; Two copies stand in the α2β2 heterotetramer; also called PvcFRS β subunit; PvFRS β subunit
T2 sequence: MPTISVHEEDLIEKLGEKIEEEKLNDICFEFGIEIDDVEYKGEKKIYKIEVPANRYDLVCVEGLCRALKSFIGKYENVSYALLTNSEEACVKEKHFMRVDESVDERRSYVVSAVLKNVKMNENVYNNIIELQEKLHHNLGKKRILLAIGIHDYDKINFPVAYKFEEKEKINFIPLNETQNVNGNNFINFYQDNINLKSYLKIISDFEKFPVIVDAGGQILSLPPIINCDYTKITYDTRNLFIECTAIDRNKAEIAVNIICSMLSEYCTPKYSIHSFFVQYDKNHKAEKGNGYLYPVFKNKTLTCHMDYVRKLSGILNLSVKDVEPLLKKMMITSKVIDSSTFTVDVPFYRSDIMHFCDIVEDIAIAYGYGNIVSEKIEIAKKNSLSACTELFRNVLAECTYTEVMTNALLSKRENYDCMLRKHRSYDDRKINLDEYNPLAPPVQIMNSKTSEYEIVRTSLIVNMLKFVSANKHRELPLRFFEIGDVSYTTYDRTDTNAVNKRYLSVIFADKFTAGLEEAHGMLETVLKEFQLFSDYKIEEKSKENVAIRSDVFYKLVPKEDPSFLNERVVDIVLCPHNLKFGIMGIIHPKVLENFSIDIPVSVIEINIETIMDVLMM

B1: Plasmodium falciparum cytoplasmic phenylalanyl-tRNA synthetase (PfcFRS) alpha subunit (enzyme)
chain: MSTNNVEEKKNEELYNLLNILEEEFNLSKIENKNNNKNDDGDDDDVNKREDNNNNEYYKKLKDEKGLDVLINEYTTSLKISKKYNIDHNKVMGMIKKLETLYYIINLIKSFNTYHLSDEGKQYLKEGSPEFIVIKYVIQNNKCTLEDLKKNLGKIGDIGLNTNLKNRTIQLNKADKCLTCNCNLHDIQDFTQIYLDIINQYGHDEELLFAHLKNKNHTKNALNNNEMKNSCKDNNIINNLIQDLKKRKLLEIKKNSYSHVIKTSIFKKDIKKQITDINYLLLKNEEYKKYDIKKYNFFSSGKKINKGNIHLLTKQMRTFKEIFFSLGFEEMETHNYVESSFWCFDALYIPQQHPSRDLQDTFFIKEPETCIDKFVDTEYIDNIKRVHTHGDYGSFGWNYKWKLEESKKNVLRTHTTANSCRALFKLAKEYKEAGCIKPKKYFSIDRVFRNENLDSTHLAEFHQVEGLIIDKNIGLSHLIGTLAAFYKHIGIHKLKFKPTFNPYTEPSMEIYGYHEQSKKWLEVGNSGIFRPEMLRSMGFSEEVSVIAWGLSLERPTMIKYNIKNIRDLFGYKSVV
notes: Tags are not described; also called PfcFRS α subunit
[1]
  binding result: binds

B2: Plasmodium vivax cytoplasmic phenylalanyl-tRNA synthetase (PvcFRS) alpha subunit (PVX_081300) (enzyme)
chain: MQAKAQEEQKGEELSQFLQALEEEFALCQEGGGDKREADGPSLENAEAEELANRRAYYLQLKEERNVLVEESKHVTSLHMSSKHNIEHAKVLGMAKKLETLYYVVNHVRSFNTYQLTEEGKEYLRDGSPEHVTLRYVMEQEGCTLEDLKKLFGKKGEIGLNINLKKKKIELRKSDKRLFPHVEGSAHSLVDETRCYLQKVEAHGNDEGALVSHLKGILPPEKGEKKEEDEANNLIKELKKRKLIEAKKISYIYIIRTNLFTKEIKKQITDLTYLLIKNEEYKKYQVKKYNFFSSGKKMNKGNIHLLIRQMRTFKDVFVSLGFEEMNTHNYVESSFWCFDALYIPQQHPSRDLQDTFFIKVPEMCQEEFTDQSYIENVKRVHSVGDYGSFGWNYQWELKSTKKNVLRTHTTANSCRALFQLAKEYQKTGSIIPKKFFSIDRVFRNENLDSTHLAEFHQVEGLIIDRNLGLSHLIGTLSAFYKYIGISKLRFKPTFNPYTEPSMEVYGYHEENKKWLEVGNSGIFRPEMLRAMGFPPEVSVIAWGLSLERPTMIKYSIRNIRDLFGYRSVI
notes: Said to be full-length; Tag residues from the vector are not described; Two copies stand in the α2β2 heterotetramer; Residues 1-270 were disordered in the crystal; also called PvcFRS α subunit; PvFRS α subunit
[2]
  binding result: binds
